The text below walks through data of the supplement of paper PMC10567573.

± gives the standard deviation.

A short description of this data set: protein stability index of a GFP-peptide fusion (GPS, HEK-293T) (PSI 1-6); higher = more stable.
Setting [1] is: treatment: DMSO, c terminus: a fixed tail appended.
Setting [2] is: treatment: MLN4924 1 uM, 8 h, c terminus: a fixed tail appended.
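Further: 24-mer peptide tiles fused after GFP, lentivirally expressed, FACS-sorted into six equal bins by GFP/DsRed ratio, decoded by Illumina sequencing, PSI is the read-weighted mean bin number.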

LRWERAWFPPAIMGVVSLVFLIIY [ARL6IP1] returned a protein stability index under setting [1] of 3.17 ± 0.1 and a protein stability index under setting [2] of 3.08 ± 0.31.

In turn, LSASKDRTMRLWNIEEIDEIPLVI [WDR88] came in with a protein stability index under setting [1] of 2.19 ± 0.21 and a protein stability index under setting [2] of 2.39 ± 0.14.

As for LSELYEESSDLQMDVMPGEGDLPQ [EID1], the protein stability index stood at 5.42 ± 0.47 under setting [1] and 5.12 ± 0.47 under setting [2].

LSGTRESLAQGPDAATTDELSSLG [TBC1D10A]: the protein stability index reads like this: under setting [1], 5.23 ± 0.34; under setting [2], 4.9 ± 0.24.

For LSHAGQKATAAFSNVGTAISKKFG [TPD52L1], the protein stability index by setting is: under setting [1], 3.73 ± 0.23; under setting [2], 3.66 ± 0.21.

For the sequence LSLDNSPLLQSIHQLDFVQVKASS [TRIM9], the protein stability index runs as follows: under setting [1], 2.73 ± 0.17; under setting [2], 2.98 ± 0.42.

As for LSQVELQAAPGALPVSSPEPPPAL [TRIM55], the protein stability index runs as follows: under setting [1], 4.79 ± 0.14; under setting [2], 4.69 ± 0.21.

With LTAHLLPPRQALGSLCSPWAAPRV [YPEL3], the protein stability index under setting [1] was 2.56 ± 0.36 and the protein stability index under setting [2] came out at 2.45 ± 0.36.

Consider LTEQYTVTGLMEATQMMVDIDGDV [RHOBTB2], for which the protein stability index is, setting by setting: under setting [1], 4.66 ± 0.33; under setting [2], 4.63 ± 0.29.

In the case of LTMNSEDERRDAEERASLAGNRNS [KCNK9], the protein stability index by setting is: under setting [1], 5.56 ± 0.082; under setting [2], 5.5 ± 0.22.

For LTPADKAEHMKRQRHPRLRPQSAQ [AUP1], the protein stability index was determined as 4.36 ± 0.16 under setting [1] and 4.57 ± 0.28 under setting [2].

The sequence LTRIRKWIEHSKLREINFKIVEFN [GLT8D2] came in with a protein stability index under setting [1] of 2.48 ± 0.44 and a protein stability index under setting [2] of 2.51 ± 0.39.

With LTRLRTASGHEPGGSAVCASRVKL [PLEKHN1], the protein stability index amounted to 3.63 ± 0.17 under setting [1] and 3.61 ± 0.28 under setting [2].

On to LVAHQRYHTGKTPFVCPECGQPCS [ZNF649], for which the protein stability index is 3.62 ± 0.45 under setting [1] and 4.03 ± 0.51 under setting [2].

In turn, LVATNAHLDHYYQEELPALLKALV [FCHSD1] yielded a protein stability index under setting [1] of 2.24 ± 0.23 and a protein stability index under setting [2] of 2.19 ± 0.36.

Regarding LVGDSDVGKGEILESLQDGAAESP [RAB40C], the protein stability index was 5.35 ± 0.27 under setting [1] and 5.39 ± 0.3 under setting [2].

Take LVQKDQHSFELDEKALASILLQDH [ATL3]: the protein stability index came out at 3.43 ± 0.35 under setting [1] and 3.38 ± 0.28 under setting [2].

Take MAAAVAAAPGALGSLHAGGARLVA [AUH]: the protein stability index amounted to 2.8 ± 0.58 under setting [1] and 3.12 ± 0.39 under setting [2].

In the case of MAAWGKKHAGKDPVRDECEERNRF [FAM9B], the protein stability index runs as follows: under setting [1], 4.59 ± 0.23; under setting [2], 4.62 ± 0.34.

MALPGARARGWAAAARAAQRRRRV [RSAD1]: the protein stability index came to 4.64 ± 0.15 under setting [1] and 4.61 ± 0.17 under setting [2].

For MASCAEPSEPSAPLPAGVPPLEDF [FKBP8], the protein stability index under setting [1] turned out to be 4.97 ± 0.28 and the protein stability index under setting [2] worked out at 5.05 ± 0.14.

As for MAVALGCAIQASLNQGSVFQEYDT [ZNF449], the protein stability index by setting is: under setting [1], 3.91 ± 0.54; under setting [2], 2.88 ± 1.2.

Consider MAVDKDTTNVGRYPVGRFPSLHVV [FEM1A], for which the protein stability index by setting is: under setting [1], 2.67 ± 0.3; under setting [2], 2.72 ± 0.34.

MDEKVFTKELDQWIEQLNECKQLS [PPP2CA]: the protein stability index is, setting by setting: under setting [1], 4.15 ± 0.17; under setting [2], 4.15 ± 0.16.

Regarding MDIKNSPSSLNSPSSYNCSQSILP [ESR2], the protein stability index stood at 3.8 ± 0.19 under setting [1] and 3.93 ± 0.29 under setting [2].

MERRRLRGSIQSRYISMSVWTSPR [PRAME]: the protein stability index reads like this: under setting [1], 2.64 ± 0.28; under setting [2], 2.73 ± 0.38.

Sequence MESRKDITNQEELWKMKPRRNLEE [STEAP1] gave a protein stability index under setting [1] of 4.91 ± 0.37 and a protein stability index under setting [2] of 4.92 ± 0.34.

Take MGKRDTADIISTVEFNHTGELLAT [PPP2R2C]: the protein stability index under setting [1] was determined as 3.62 ± 0.21 and the protein stability index under setting [2] came to 3.89 ± 0.31.

Consider MGTRRKHLGCAVYQDMIYAVGGRD [KLHL20], for which the protein stability index under setting [1] is 2.33 ± 0.27 and the protein stability index under setting [2] was found to be 2.29 ± 0.56.

Take MHDMLLEELAPVGTAHIPPTMHLE [ZNF449]: the protein stability index came out at 3.71 ± 0.32 under setting [1] and 3.64 ± 0.12 under setting [2].

Consider MHPKETTRQLSLAVKDGLIVETLT [ZMYND11], for which the protein stability index runs as follows: under setting [1], 3.27 ± 0.28; under setting [2], 3.36 ± 0.24.

Take MKALLGSYAHSVEDTHVQIGQVHE [FCHO1]: the protein stability index is 3.62 ± 0.091 under setting [1] and 3.6 ± 0.25 under setting [2].

Consider MKNLLFSEMWDIFLVRLLMAMAVM [MFSD9], for which the protein stability index by setting is: under setting [1], 3.14 ± 0.48; under setting [2], 3.22 ± 0.77.

MLQKPKSVKLRALRSPRKFGVAGR [DFFB]: the protein stability index came to 2.94 ± 0.27 under setting [1] and 3.26 ± 0.35 under setting [2].

As for MLRWLIGGGREPQGLAEKSPLQTI [WDR41], the protein stability index turned out to be 2.33 ± 0.21 under setting [1] and 2.33 ± 0.23 under setting [2].

In the case of MNRAFSRKKDKTWMHTPEALSKHF [GULP1], the protein stability index was determined as 2.69 ± 0.21 under setting [1] and 2.85 ± 0.14 under setting [2].

With MPYNFCLPSLSCRTSCSSRPCVPP [KRT33B], the protein stability index came to 2.34 ± 0.41 under setting [1] and 2.18 ± 0.45 under setting [2].

As for MQDYVRTGTYQRAILQNHTDFKDK [CARM1], the protein stability index runs as follows: under setting [1], 3.92 ± 0.32; under setting [2], 4.18 ± 0.29.

Consider MQIEFIKQGSMNFRFIPVLFPNAK [TRAF3IP2], for which the protein stability index runs as follows: under setting [1], 2.96 ± 0.71; under setting [2], 2.45 ± 0.58.

Sequence MQSLDDATKQLDFTRKTLAEKKQE [SASS6] registered a protein stability index under setting [1] of 5.12 ± 0.24 and a protein stability index under setting [2] of 5.19 ± 0.27.

Turning to MRKSGAMKKGGIFSAEFLKVFIPS [BNIP3L], the protein stability index is 2.38 ± 0.3 under setting [1] and 2.26 ± 0.21 under setting [2].

Turning to MSIVIPLGVDTAETSYLEMAAGSE [KMT2E], the protein stability index is, setting by setting: under setting [1], 2.76 ± 0.51; under setting [2], 2.74 ± 0.39.

As to MSLLHLGALYGITLIPTCKFYTWL [SCD], the protein stability index by setting is: under setting [1], 3.01 ± 0.57; under setting [2], 3.74 ± 0.94.

For MSSENCFVAENSSLHPESGQENDA [CD69], the protein stability index runs as follows: under setting [1], 5.71 ± 0.19; under setting [2], 5.54 ± 0.096.

Take MSSPSSPFREQSFLCAAGDAGEES [TIAF1]: the protein stability index amounted to 5.34 ± 0.18 under setting [1] and 5.32 ± 0.17 under setting [2].

Take MSSRKVLAIQARKRRPKREKHPKK [SRPK2]: the protein stability index runs as follows: under setting [1], 4.41 ± 0.28; under setting [2], 4.46 ± 0.52.

For MTMTTMPESLNSPVSGKAVFMEFG [DLX1], the protein stability index runs as follows: under setting [1], 2.42 ± 0.16; under setting [2], 2.57 ± 0.21.

Turning to MVHKRSHTGERPFQCNQCGASFTQ [IKZF1], the protein stability index runs as follows: under setting [1], 2.86 ± 0.25; under setting [2], 2.97 ± 0.43.

As for NAVRQNGQLVRNDSLWHRSDSAPR [MFF], the protein stability index reads like this: under setting [1], 4.01 ± 0.25; under setting [2], 4.07 ± 0.21.

Take NCVSSVYLYYDPDYSFLSLGVYSA [ATE1]: the protein stability index under setting [1] came out at 3.23 ± 0.41 and the protein stability index under setting [2] stood at 3.27 ± 0.11.

As for NDTYRTDLCLLYPPFMIALACLHV [CCNC], the protein stability index by setting is: under setting [1], 3.07 ± 0.38; under setting [2], 2.97 ± 0.23.

Consider NDVRQSANYTCVAMSTLGVIEAIA [PTPRD], for which the protein stability index stood at 2.3 ± 0.34 under setting [1] and 2.19 ± 0.3 under setting [2].

With NEDGPSSENLEEETENIIAANHWV [TRIP13], the protein stability index is, setting by setting: under setting [1], 5.08 ± 0.31; under setting [2], 5.42 ± 0.23.

In turn, NEPSINFYKRRGASDLSSEEGWRL [SAT1] gave a protein stability index under setting [1] of 3.69 ± 0.4 and a protein stability index under setting [2] of 3.84 ± 0.17.

Consider NETRRKHETRLVEVDSGRQIEYEY [LMNB1], for which the protein stability index is, setting by setting: under setting [1], 4.54 ± 0.14; under setting [2], 4.57 ± 0.23.

For the sequence NGINGELTSADRETAEEVSARIVQ [MAP2], the protein stability index runs as follows: under setting [1], 5.23 ± 0.22; under setting [2], 5.35 ± 0.18.

In the case of NGLTPKKKIQVNSKPSIQPKPLLL [ATF6], the protein stability index was 3.48 ± 0.17 under setting [1] and 3.32 ± 0.25 under setting [2].

With NHLDPFGHIILNSMHKYQPRLHIV [TBX5], the protein stability index worked out at 2.31 ± 0.23 under setting [1] and 2.08 ± 0.52 under setting [2].

As to NIDETCGRHHSQSTEVQAHPYSTT [TEKT4], the protein stability index came to 4.62 ± 0.091 under setting [1] and 4.54 ± 0.07 under setting [2].

Take NIIAIAATNNLYIFQDKVNSDMH [PPP2R2C]: the protein stability index stood at 2.36 ± 0.49 (treatment: DMSO, c terminus: native) and 2.09 ± 0.2 (treatment: MLN4924 1 uM, 8 h, c terminus: native).

With NKKHGEAEKKKPKTQIVCKHFLEA [ZC3H15], the protein stability index runs as follows: under setting [1], 4.09 ± 0.32; under setting [2], 4.14 ± 0.31.

Turning to NLAAAAADIPQDQLVVMHPTPQVD [BTBD10], the protein stability index is 5.14 ± 0.21 under setting [1] and 5.13 ± 0.21 under setting [2].

Regarding NLDKMADNLLAAADKYALERLKVM [SPOPL], the protein stability index reads like this: under setting [1], 3.1 ± 0.44; under setting [2], 3.04 ± 0.42.

Turning to NLGDALDSSNSMQTIQKTTTRRIV [KRT18], the protein stability index by setting is: under setting [1], 4.38 ± 0.19; under setting [2], 4.51 ± 0.28.

Take NMSLTALREKLLEAEQSLRNLEDI [TEKT4]: the protein stability index was determined as 3.29 ± 0.47 under setting [1] and 3.43 ± 0.46 under setting [2].

Take NNEEQRSGLIYLTNHIAPHARNGL [IKZF1]: the protein stability index was determined as 3.34 ± 0.33 under setting [1] and 3.52 ± 0.2 under setting [2].

With NNGIFQINSRRWCSNLTPNVPNVC [SPACA3], the protein stability index came to 2.6 ± 0.28 under setting [1] and 2.63 ± 0.25 under setting [2].

Turning to NQAGYFMLPTVITDIKDESCCMTE [ALDH8A1], the protein stability index by setting is: under setting [1], 3.5 ± 0.13; under setting [2], 3.71 ± 0.43.

Regarding NQVSSNSWGIAGETELALVKESGE [DLC1], the protein stability index is, setting by setting: under setting [1], 5.17 ± 0.41; under setting [2], 5.23 ± 0.2.

With NRNQGLNRLMLAVRDMMANFHLND [TCF25], the protein stability index stood at 2.1 ± 0.16 under setting [1] and 2.24 ± 0.37 under setting [2].

As to NRRDVEAWFFSKTEELNKEVASNT [KRT15], the protein stability index runs as follows: under setting [1], 4.05 ± 0.26; under setting [2], 4.12 ± 0.23.

NRVVVSGLPPSGSWQDLKDHMREA [SRSF1]: the protein stability index reads like this: under setting [1], 3.93 ± 0.094; under setting [2], 4.03 ± 0.12.
